The text below walks through data of paper PMC4156074.

The target in experiment [1] is Full-length human plasma kallikrein, activated form (human) (UniProt P03952). As to the kind of experiment: enzyme inhibition (steady state, tight-binding fit); DX-2930 IgG (up to 10 nM, 1.5-fold dilutions) incubated 1 h at 30 °C with 1 nM pKal, free or preincubated with 600 nM 2-chain HMWK, in 20 mM Tris-HCl pH 7.5, 150 mM NaCl, 1 mM EDTA, 0.1% PEG-8000, 0.1% Triton X-100; substrate H-Pro-Phe-Arg-AMC at 10, 50 or 100 uM; Ki from Ki app by Equation 2, averaged.

The target is the same in experiment [2].
The target of experiment [3] is pKal from cynomolgus monkey plasma (cynomolgus monkey). As to the kind of experiment: enzyme inhibition (steady state, tight-binding fit); DX-2930 on purified pKal of mouse, rat, rabbit and cynomolgus monkey; apparent; data not shown.

Chain of Full-length human plasma kallikrein, activated form (human) (P03952 20-390, chain 1 of 2): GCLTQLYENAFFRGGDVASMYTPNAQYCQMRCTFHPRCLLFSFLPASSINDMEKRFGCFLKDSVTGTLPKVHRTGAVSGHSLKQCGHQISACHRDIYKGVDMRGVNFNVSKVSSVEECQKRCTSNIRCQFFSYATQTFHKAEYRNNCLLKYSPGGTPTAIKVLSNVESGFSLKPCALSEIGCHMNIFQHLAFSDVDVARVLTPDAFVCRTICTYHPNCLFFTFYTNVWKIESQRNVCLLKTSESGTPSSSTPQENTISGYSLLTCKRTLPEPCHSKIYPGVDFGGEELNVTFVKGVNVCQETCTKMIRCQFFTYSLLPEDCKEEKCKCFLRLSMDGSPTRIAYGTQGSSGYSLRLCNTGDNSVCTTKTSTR
Chain of Full-length human plasma kallikrein, activated form (human) (P03952 391-638, chain 2 of 2): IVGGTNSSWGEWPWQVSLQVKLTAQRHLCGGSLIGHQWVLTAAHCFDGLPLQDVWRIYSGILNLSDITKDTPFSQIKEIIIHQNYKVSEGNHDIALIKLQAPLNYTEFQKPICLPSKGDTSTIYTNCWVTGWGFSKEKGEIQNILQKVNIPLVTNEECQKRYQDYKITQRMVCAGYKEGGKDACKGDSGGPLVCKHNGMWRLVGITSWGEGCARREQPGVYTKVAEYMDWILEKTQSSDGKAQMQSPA

B1: DX-2930, fully human IgG1 monoclonal antibody (antibody, V domains shown)
VH: EVQLLESGGGLVQPGGSLRLSCAASGFTFSHYIMMWVRQAPGKGLEWVSGIYSSGGITVYADSVKGRFTISRDNSKNTLYLQMNSLRAEDTAVYYCAYRRIGVPRRDEFDIWGQGTMVTVSS
VL: DIQMTQSPSTLSASVGDRVTITCRASQSISSWLAWYQQKPGKAPKLLIYKASTLESGVPSRFSGSGSGTEFTLTISSLQPDDFATYYCQQYNTYWTFGQGTKVEIK
With B1, the Ki in experiment [1] worked out at 0.12 nM; in experiment [3], 0.07 nM. The molecule further came in with a release of bradykinin from 1-chain HMWK (20 nM) by pKal (0.15 nM) after 1 h with DX-2930, bradykinin ELISA; blocks the proteolysis of HMWK by pKal in experiment [2] of 1.3 nM.
